One substance from patent US20220204624A1 can be followed below.

Holding throughout (assay): Octet (BLI), global fit, 1:1 binding model
One test has as its target human LAG-3 (human) (UniProt P18627).
In test [1] the target is cynomolgus CTLA-4 (cynomolgus) (UniProt G7PL88).
The target in the next test is human CTLA-4 (human) (UniProt P16410).
The target in test [2] is cynomolgus LAG-3 (cynomolgus).

Sequence of cynomolgus CTLA-4 (cynomolgus) (G7PL88 entry or part of it limits assumed, form in doubt): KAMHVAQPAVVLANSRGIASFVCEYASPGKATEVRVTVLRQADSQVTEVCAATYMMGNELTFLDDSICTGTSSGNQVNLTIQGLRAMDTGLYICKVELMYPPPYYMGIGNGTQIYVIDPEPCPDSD
Sequence of human CTLA-4 (human) (P16410 36-161 limits assumed): as the sequence (G7PL88 entry or part of it limits assumed, form in doubt) above, with N14S, M106L counted along it
Sequence of human LAG-3 (human) (P18627 23-450 limits assumed): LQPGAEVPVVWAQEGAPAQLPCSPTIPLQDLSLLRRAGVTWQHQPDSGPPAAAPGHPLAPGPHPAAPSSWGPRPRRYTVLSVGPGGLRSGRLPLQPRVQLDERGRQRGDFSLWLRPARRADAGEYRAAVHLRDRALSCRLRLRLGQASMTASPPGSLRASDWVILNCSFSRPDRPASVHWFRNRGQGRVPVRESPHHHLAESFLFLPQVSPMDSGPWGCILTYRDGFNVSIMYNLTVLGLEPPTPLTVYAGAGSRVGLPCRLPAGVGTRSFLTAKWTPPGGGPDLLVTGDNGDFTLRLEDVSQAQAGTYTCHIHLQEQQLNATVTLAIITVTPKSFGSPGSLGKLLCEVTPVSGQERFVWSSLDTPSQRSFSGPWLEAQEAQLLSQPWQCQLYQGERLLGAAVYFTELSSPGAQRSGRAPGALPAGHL

On to XmAb22841 (bispecific antibody), for which the Kd turned out to be 1.4 nM with human LAG-3 (human), 17.6 nM in test [1], 4.6 nM in the test with human CTLA-4 (human) and 1.3 nM in test [2].
